Laboratory results: the supplement of paper PMC11246515
± gives the standard deviation of the averaged measurements.

Experiment: total protein half-life in vivo (active degradation + dilution); higher = more stable protein
[1] = E. coli NCM3722 delta-clpP delta-lon delta-hslV, growth: N-lim chemostat, doubling time 6 h
[2] = E. coli NCM3722 delta-clpP, growth: N-lim chemostat, doubling time 6 h
[3] = E. coli NCM3722 delta-hslV, growth: N-lim chemostat, doubling time 6 h
[4] = E. coli NCM3722 delta-lon, growth: N-lim chemostat, doubling time 6 h
[5] = E. coli NCM3722 delta-smpB, growth: N-lim chemostat, doubling time 6 h
[6] = wild type E. coli NCM3722, growth: C-lim chemostat, doubling time 3 h
[7] = wild type E. coli NCM3722, growth: C-lim chemostat, doubling time 6 h
[8] = wild type E. coli NCM3722, growth: C-lim chemostat, doubling time 12 h
[9] = wild type E. coli NCM3722, growth: N-lim chemostat, doubling time 6 h
[10] = wild type E. coli NCM3722, growth: N-lim chemostat, doubling time 12 h
[11] = wild type E. coli NCM3722, growth: P-lim chemostat, doubling time 6 h
[12] = wild type E. coli NCM3722, growth: P-lim chemostat, doubling time 12 h

| Sequence | total protein half-life in vivo [1] | total protein half-life in vivo [2] | total protein half-life in vivo [3] | total protein half-life in vivo [4] | total protein half-life in vivo [5] | total protein half-life in vivo [6] | total protein half-life in vivo [7] | total protein half-life in vivo [8] | total protein half-life in vivo [9] | total protein half-life in vivo [10] | total protein half-life in vivo [11] | total protein half-life in vivo [12] |
| --- | --- | --- | --- | --- | --- | --- | --- | --- | --- | --- | --- | --- |
| MCGIVGIAGVMPVNQSIYDALTVLQHRGQDAAGIITIDANNCFRLRKANGLVSDVFEARHMQRLQGNMGIGHVRYPTAGSSSASEAQPFYVNSPYGITLAHNGNLTNAHELRKKLFEEKRRHINTTSDSEILLNIFASELDNFRHYPLEADNIFAAIAATNRLIRGAYACVAMIIGHGMVAFRDPNGIRPLVLGKRDIDENRTEYMVASESVALDTLGFDFLRDVAPGEAIYITEEGQLFTRQCADNPVSNPCLFEYVYFARPDSFIDKISVYSARVNMGTKLGEKIAREWEDLDIDVVIPIPETSCDIALEIARILGKPYRQGFVKNRYVGRTFIMPGQQLRRKSVRRKLNANRAEFRDKNVLLVDDSIVRGTTSEQIIEMAREAGAKKVYLASAAPEIRFPNVYGIDMPSATELIAHGREVDEIRQIIGADGLIFQDLNDLIDAVRAENPDIQQFECSVFNGVYVTKDVDQGYLDFLDTLRNDDAKAVQRQNEVENLEMHNEG [P0AG16] | 5.35 ± 1.5 h | 4.19 ± 0.24 h | 2.31 ± 0.34 h | 2.37 ± 0.23 h | 2.13 ± 0.17 h | 2.301 ± 0.0058 h | 4.01 ± 0.4 h | 5.59 ± 0.33 h | 2.25 ± 0.18 h | 2.8937 ± 0.00088 h | 3.6 ± 0.23 h | 6.17 ± 0.076 h |
| MKQIRLLAQYYVDLMMKLGLVRFSMLLALALVVLAIVVQMAVTMVLHGQVESIDVIRSIFFGLLITPWAVYFLSVVVEQLEESRQRLSRLVQKLEEMRERDLSLNVQLKDNIAQLNQEIAVREKAEAELQETFGQLKIEIKEREETQIQLEQQSSFLRSFLDASPDLVFYRNEDKEFSGCNRAMELLTGKSEKQLVHLKPADVYSPEAAAKVIETDEKVFRHNVSLTYEQWLDYPDGRKACFEIRKVPYYDRVGKRHGLMGFGRDITERKRYQDALERASRDKTTFISTISHELRTPLNGIVGLSRILLDTELTAEQEKYLKTIHVSAVTLGNIFNDIIDMDKMERRKVQLDNQPVDFTSFLADLENLSALQAQQKGLRFNLEPTLPLPHQVITDGTRLRQILWNLISNAVKFTQQGQVTVRVRYDEGDMLHFEVEDSGIGIPQDELDKIFAMYYQVKDSHGGKPATGTGIGLAVSRRLAKNMGGDITVTSEQGKGSTFTLTIHAPSVAEEVDDAFDEDDMPLPALNVLLVEDIELNVIVARSVLEKLGNSVDVAMTGKAALEMFKPGEYDLVLLDIQLPDMTGLDISRELTKRYPREDLPPLVALTANVLKDKQEYLNAGMDDVLSKPLSVPALTAMIKKFWDTQDDEESTVTTEENSKSEALLDIPMLEQYLELVGPKLITDGLAVFEKMMPGYVSVLESNLTAQDKKGIVEEGHKIKGAAGSVGLRHLQQLGQQIQSPDLPAWEDNVGEWIEEMKEEWRHDVEVLKAWVAKATKK [P0AEC3] | 5.863 ± 0.04 h | 6.27 ± 0.077 h | 5.797 ± 0.042 h | 5.21 ± 0.38 h | 5.568 ± 0.012 h | 3.09 ± 0.14 h | 5.88 ± 0.086 h | 10.9 ± 0.17 h | 5.54 ± 0.18 h | 10.5 ± 1 h | 5.69 ± 0.2 h | 11.4 ± 0.22 h |
| MNHSLKPWNTFGIDHNAQHIVCAEDEQQLLNAWQYATAEGQPVLILGEGSNVLFLEDYRGTVIINRIKGIEIHDEPDAWYLHVGAGENWHRLVKYTLQEGMPGLENLALIPGCVGSSPIQNIGAYGVELQRVCAYVDSVELATGKQVRLTAKECRFGYRDSIFKHEYQDRFAIVAVGLRLPKEWQPVLTYGDLTRLDPTTVTPQQVFNAVCHMRTTKLPDPKVNGNAGSFFKNPVVSAETAKALLSQFPTAPNYPQADGSVKLAAGWLIDQCQLKGMQIGGAAVHRQQALVLINEDNAKSEDVVQLAHHVRQKVGEKFNVWLEPEVRFIGASGEVSAVETIS | 4.93 ± 1.3 h | 3.45 ± 0.048 h | 3.8 ± 0.13 h | 3.89 ± 0.49 h | 3.52 ± 0.22 h | 2.93 ± 0.053 h | 4.83 ± 0.63 h | 9.87 ± 0.28 h | 3.66 ± 0.11 h | 5.41 ± 0.096 h | 4.81 ± 0.36 h | 8.99 ± 0.82 h |
| MQASQFSAQVLDWYDKYGRKTLPWQIDKTPYKVWLSEVMLQQTQVATVIPYFERFMARFPTVTDLANAPLDEVLHLWTGLGYYARARNLHKAAQQVATLHGGKFPETFEEVAALPGVGRSTAGAILSLSLGKHFPILDGNVKRVLARCYAVSGWPGKKEVENKLWSLSEQVTPAVGVERFNQAMMDLGAMICTRSKPKCSLCPLQNGCIAAANNSWALYPGKKPKQTLPERTGYFLLLQHEDEVLLAQRPPSGLWGGLYCFPQFADEESLRQWLAQRQIAADNLTQLTAFRHTFSHFHLDIVPMWLPVSSFTGCMDEGNALWYNLAQPPSVGLAAPVERLLQQLRTGAPV | – | 5.73 ± 0.018 h | 4.02 ± 0.7 h | 3.65 ± 0.12 h | 3.52 ± 0.35 h | 3.86 h | 4.84 ± 0.14 h | 7.51 ± 0.26 h | 4.8 ± 1.8 h | 6.05 h | 4.89 ± 0.49 h | 8.5 ± 0.85 h |
| MIPLQHGLILAAILFVLGLTGLVIRRNLLFMLIGLEIMINASALAFVVAGSYWGQTDGQVMYILAISLAAAEASIGLALLLQLHRRRQNLNIDSVSEMRG [P0AFE4] | – | 6.43 h | 7.8 h | > 8 h | 5.17 h | 3.31 h | 7.48 ± 0.41 h | 11.7 h | – | – | 7.16 ± 0.3 h | 13.1 ± 1.5 h |
| MLKLLKTIMRAGTATVKYPFAPLEVSPGFRGKPDLMPSQCIACGACACACPANALTIQTDDQQNSRTWQLYLGRCIYCGRCEEVCPTRAIQLTNNFELTVTNKADLYTRATFHLQRCSRCERPFAPQKTIALAAELLAQQQNAPQNREMLWAQASVCPECKQRATLINDDTDVLLVAKEQL | 4.78 h | – | – | – | – | – | – | – | – | – | – | – |
